In patent US20260263645A1 (published 2026) one finds Kd data, which are given here for one molecule.

This experiment concerns the target TGFβ1 (UniProt P01137 279-390). Description: radioligand plate binding; 89Zr-labeled.

As usually defined, the Kd is the concentration at which binding is half-saturated. Higher therefore signals weaker binding.

TGFβ1, sequence (P01137 279-390): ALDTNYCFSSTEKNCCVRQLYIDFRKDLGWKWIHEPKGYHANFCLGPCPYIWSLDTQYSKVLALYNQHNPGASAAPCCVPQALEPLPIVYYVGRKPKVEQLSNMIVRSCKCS

B1: Fresolimumab (antibody, V domains shown)
VH: QVQLVQSGAEVKKPGSSVKVSCKASGYTFSSNVISWVRQAPGQGLEWMGGVIPIVDIANYAQRFKGRVTITADESTSTTYMELSSLRSEDTAVYYCASTLGLVLDAMDYWGQGTLVTVSS
VL: ETVLTQSPGTLSLSPGERATLSCRASQSLGSSYLAWYQQKPGQAPRLLIYGASSRAPGIPDRFSGSGSGTDFTLTISRLEPEDFAVYYCQQYADSPITFGQGTRLEIKR
In the case of B1, the Kd was 66 nM.
